Experimental data from FireProtDB.
Values joined by “and” are separate entries in the source; they are usually repeats but may differ in a detail not shown here. Equal values may be shown once.

Conditions: whole UniProt chain shown
[1] = Oryza sativa subsp. japonica, pH 7, Thermal, DSC, Potassium phosphate buffer, NaCl, reversible: yes
[2] = Locusta migratoria, pH 3, 20 °C, Thermal, NMR, Unknown
[3] = Ovis aries, pH 7, 25 °C, GdnHCl, CD, HEPES 20 mM, reversible: yes
[4] = Ovis aries, pH 7, 25 °C, GdnHCl, Fluorescence, HEPES 20 mM, reversible: yes
[5] = Lithobates pipiens, pH 6, 25 °C, GdnHCl, DSC, MES 100 mM, reversible: yes
[6] = Mus musculus, pH 7.2, 25 °C, Urea, Fluorescence, Sodium phosphate 20 mM, Sodium chloride 100 mM, reversible: Yes
[7] = Homo sapiens, pH 7.5, 23 °C, GdnHCl, Fluorescence, Tris-HCl 50 mM, reversible: yes
[8] = Locusta migratoria, pH 7, 25 °C, GdnHCl, CD, Sodium phosphate 50 mM, KCl 100 mM, reversible: yes
[9] = Pectobacterium carotovorum, pH 7.4, Thermal, DSC, CGH-10, reversible: no
[10] = Paracoccus pantotrophus, pH 7, 25 °C, Urea, CD, Sodium phosphate 20 mM, Na2SO4 0.5 M, reversible: yes
[11] = Hydrogenobacter thermophilus (strain DSM 6534 / IAM 12695 / TK-6), pH 7, Thermal, CD, KH2PO4-NaOH 10 mM, reversible: yes

B1: wild type, Q96HL2 (protein)
chain: MTKLRAQQCRFWTSFFPKVLEMTGNIDEAEWEWKAGFHRWNNYMMDWKNQFNDYTSKKESCVGL
Tm (Homo sapiens, pH 8, Thermal, DSC, sodium phosphate 50 mM): 62.8 °C

B2: Endo-1,4-beta-xylanase 2 wild type, P36217 (protein)
chain: MVSFTSLLAGVAAISGVLAAPAAEVESVAVEKRQTIQPGTGYNNGYFYSYWNDGHGGVTYTNGPGGQFSVNWSNSGNFVGGKGWQPGTKNKVINFSGSYNPNGNSYLSVYGWSRNPLIEYYIVENFGTYNPSTGATKLGEVTSDGSVYDIYRTQRVNQPSIIGTATFYQYWSVRRNHRSSGSVNTANHFNAWAQQGLTLGTMDYQIVAVEGYFSSGSASITVS
Tm (Hypocrea jecorina (strain ATCC 56765 / BCRC 32924 / NRRL 11460 / Rut C-30), pH 5, Thermal, DSC, citrate - phosphate buffer 50 mM): 61.4 °C

B3: Protein CutA 1, chloroplastic wild type, Q109R6 (protein)
chain: MPLLPSPLGSLSAAATAAPRRAAAAAGLSPLLLRRRAPIAGALLFLSLGAFAGVRSLSSSASARMESTSTTVPSIVVYVTVPNKEAGKRLAGSIISEKLAACVNIVPGIESVYWWEGKVQTDAEELLIIKTRESLLDALTEHVKANHEYDVPEVIALPIKGGNLKYLEWLKNSTRES
Tm [1]: 97.3 °C
unfolding enthalpy (calorimetric) [1]: 347 kcal/mol
unfolding free energy [1]: 0.79 kcal/mol
denaturant midpoint (higher = more stable) (Oryza sativa subsp. japonica, pH 8, 37 °C, GdnHCl, CD, Tris-HCl buffer, NaCl, transition: 2, reversible: yes): 2.3 M

B4: SNARE-associated protein Snapin wild type, O95295 (protein)
chain: MAGAGSAAVSGAGTPVAGPTGRDLFAEGLLEFLRPAVQQLDSHVHAVRESQVELREQIDNLATELCRINEDQKVALDLDPYVKKLLNARRRVVLVNNILQNAQERLRRLNHSVAKETARRRAMLDSGIYPPGSPGK
Tm (Homo sapiens, pH 7.4, Thermal, CD, Tris 50 mM): 57.9 °C

B5: Protease inhibitors wild type, P80060 (protein)
chain: MKFALALCAAVLLVVLVQAEEKCTPGQVKQQDCNTCTCTPTGVWGCTRKGCQPAKREISCEPGKTFKDKCNTCRCGADGKSAACTLKACPNQ
unfolding enthalpy (van 't Hoff) [2]: 19.3 kcal/mol
unfolding free energy [2]: 1.1 kcal/mol

B6: Pyridoxal kinase wild type, P82197 (protein)
chain: MEEECRVLSIQSHVVRGYVGNRAATFPLQVLGFEVDAVNSVQFSNHTGYSHWKGQVLNSDELQELYDGLKLNHVNQYDYVLTGYTRDKSFLAMVVDIVQELKQQNPRLVYVCDPVMGDQRNGEGAMYVPDDLLPVYREKVVPVADIITPNQFEAELLTGRKIHSQEEALEVMDMLHSMGPDTVVITSSNLLSPRGSDYLMALGSQRTRAPDGSVVTQRIRMEMHKVDAVFVGTGDLFAAMLLAWTHKHPNNLKVACEKTVSAMHHVLQRTIKCAKAKSGEGVKPSPAQLELRMVQSKKDIESPEIVVQATVL
denaturant m value [3]: 2.41 kcal/mol/M
unfolding free energy [3]: 1.55 kcal/mol
denaturant m value [4]: 2.9 kcal/mol/M
unfolding free energy [4]: 1.5 kcal/mol

B7: Protein P-30 wild type, P22069 (protein)
chain: QDWLTFQKKHITNTRDVDCDNIMSTNLFHCKDKNTFIYSRPEPVKAICKGIIASKNVLTTSEFYLSDCNVTSRPCKYKLKKSTNKFCVTCENQAPVHFVGVGSC
denaturant m value [5]: 3.08 kcal/mol/M
denaturant midpoint (higher = more stable) [5]: 4.5 M
unfolding free energy [5]: 13.9 kcal/mol

B8: Granulocyte-macrophage colony-stimulating factor wild type, P01587 (protein)
chain: MWLQNLLFLGIVVYSLSAPTRSPITVTRPWKHVEAIKEALNLLDDMPVTLNEEVEVVSNEFSFKKLTCVQTRLKIFEQGLRGNFTKLKGALNMTASYYQTYCPPTPETDCETQVTTYADFIDSLKTFLTDIPFECKKPGQK
unfolding free energy (Mus musculus, pH 9, 4 °C, Urea, CD, Tris-glycine 50 mM, reversible: yes): 5.78 kcal/mol

B9: Adapter molecule crk wild type, Q64010 (protein)
chain: MAGNFDSEERSSWYWGRLSRQEAVALLQGQRHGVFLVRDSSTSPGDYVLSVSENSRVSHYIINSSGPRPPVPPSPAQPPPGVSPSRLRIGDQEFDSLPALLEFYKIHYLDTTTLIEPVARSRQGSGVILRQEEAEYVRALFDFNGNDEEDLPFKKGDILRIRDKPEEQWWNAEDSEGKRGMIPVPYVEKYRPASASVSALIGGNQEGSHPQPLGGPEPGPYAQPSVNTPLPNLQNGPIYARVIQKRVPNAYDKTALALEVGELVKVTKINVSGQWEGECNGKRGHFPFTHVRLLDQQNPDEDFS
denaturant m value [6]: 0.66 kcal/mol/M
unfolding free energy [6]: 3.33 kcal/mol

B10: Amicyanin wild type, P22364 (protein)
chain: MISATKIRSCLAACVLAAFGATGALADKATIPSESPFAAAEVADGAIVVDIAKMKYETPELHVKVGDTVTWINREAMPHNVHFVAGVLGEAALKGPMMKKEQAYSLTFTEAGTYDYHCTPHPFMRGKVVVE
Tm (Paracoccus denitrificans, pH 7.5, Thermal, CD, Potassium Phosphate Buffer 100 mM): 60 °C and 55 °C
Tm (Paracoccus denitrificans, pH 7.5, Thermal, absorbance, Potassium Phosphate Buffer 10 mM): 66.4 °C

B11: Thymidylate synthase wild type, P00469 (protein)
chain: MLEQPYLDLAKKVLDEGHFKPDRTHTGTYSIFGHQMRFDLSKGFPLLTTKKVPFGLIKSELLWFLHGDTNIRFLLQHRNHIWDEWAFEKWVKSDEYHGPDMTDFGHRSQKDPEFAAVYHEEMAKFDDRVLHDDAFAAKYGDLGLVYGSQWRAWHTSKGDTIDQLGDVIEQIKTHPYSRRLIVSAWNPEDVPTMALPPCHTLYQFYVNDGKLSLQLYQRSADIFLGVPFNIASYALLTHLVAHECGLEVGEFIHTFGDAHLYVNHLDQIKEQLSRTPRPAPTLQLNPDKHDIFDFDMKDIKLLNYDPYPAIKAPVAV
unfolding free energy (Lacticaseibacillus casei, pH 7, 4 °C, Urea, CD, KHPO4 20 mM, KCl 0.5 M, reversible: yes): 19.1 kcal/mol

B12: Subtilisin Savinase wild type, P29600 (protein)
chain: AQSVPWGISRVQAPAAHNRGLTGSGVKVAVLDTGISTHPDLNIRGGASFVPGEPSTQDGNGHGTHVAGTIAALNNSIGVLGVAPSAELYAVKVLGASGSGSVSSIAQGLEWAGNNGMHVANLSLGSPSPSATLEQAVNSATSRGVLVVAASGNSGAGSISYPARYANAMAVGATDQNNNRASFSQYGAGLDIVAPGVNVQSTYPGSTYASLNGTSMATPHVAGAAALVKQKNPSWSNVQIRNHLKNTATSLGSTNLYGSGLVNAEAATR
Tm (Lederbergia lenta, pH 8.8, Thermal, CD, Tris buffer 100 mM, reversible: No): 77.2 °C and 79.2 °C
Tm (Lederbergia lenta, pH 9, Thermal, DSC, boric acid 100 mM, CaCl2 2 mM): 72.7 °C and 75.5 °C

B13: Cyanovirin-N wild type, P81180 (protein)
chain: LGKFSQTCYNSAIQGSVLTSTCERTNGGYNTSSIDLNSVIENVDGSLKWQPSNFIETCRNTQLAGSSELAAECKTRAQQFVSTKINLDDHIANIDGTLKYE
Tm (Nostoc ellipsosporum, pH 6, Thermal, CD, Sodium phosphate 10 mM): 48.5 °C

B14: Tissue factor wild type, P13726 (protein)
chain: METPAWPRVPRPETAVARTLLLGWVFAQVAGASGTTNTVAAYNLTWKSTNFKTILEWEPKPVNQVYTVQISTKSGDWKSKCFYTTDTECDLTDEIVKDVKQTYLARVFSYPAGNVESTGSAGEPLYENSPEFTPYLETNLGQPTIQSFEQVGTKVNVTVEDERTLVRRNNTFLSLRDVFGKDLIYTLYYWKSSSSGKKTAKTNTNEFLIDVDKGENYCFSVQAVIPSRTVNRKSTDSPVECMGQEKGEFREIFYIIGAVVFVVIILVIILAISLHKCRKAGVGQSWKENSPLNVS
denaturant midpoint (higher = more stable) [7]: 1.35 M
unfolding free energy [7]: 6.3 kcal/mol

B15: Apolipophorin-3b wild type, P10762 (protein)
chain: MNTLLAVLMLAVAAQARPDAAGHVNIAEAVQQLNHTIVNAAHELHETLGLPTPDEALNLLTEQANAFKTKIAEVTTSLKQEAEKHQGSVAEQLNRFARNLNNSIHDAATSAQPADQLNSLQSALTNVGHQWQTSQPRPSVAQEAWAPVQSALQEAAEKTKEAAANLQNSIQSAVQKPAN
denaturant m value [8]: 3.46 kcal/mol/M and 4.33 kcal/mol/M
denaturant midpoint (higher = more stable) [8]: 0.6 M and 0.27 M

B16: Pectate lyase wild type, Q47471 (protein)
chain: MFKYLTPIFLCTAAFSFQAQADDTMLMLLKKDNATYLSWSTDAGNVVRQDVYRSTSNNQAGSEKIAELNSTDRTFTDLTANPKSDYWYWVDTVSSNNNVQKSNAAQTAPAPLRAAPLKAASSECKAGAVIKDKTVDCGGITLGLSCTGDSDKQPPVITLENATIKNLRISEKGGSDGIHCKSGNCRIENVIWEDVCEDAATNLGKTMTIVGGVAHNTTNGPGGKPDKVLQQNAKNSHTIVQGNFTLTGQHGKLWRSCGDCTNNGGPRNLTIISATVNGTIDSIAGVNRNFGDVAEIRDLRIKNYKAGNPKICEEFKGIEKGKGKTEKYGEFWDSKNCKVSRSNVKAL
unfolding free energy (Pectobacterium carotovorum, pH 7.4, 25 °C, GdnHCl, DSC, CGH-10, reversible: no): 8.7 kcal/mol
Tm [9]: 81.1 °C
unfolding enthalpy (calorimetric) [9]: 102 kcal/mol

B17: wild type, Q88HV5 (protein)
chain: MPFQQGLLATPVPAHARHLFFTLQSPEALPAALDALLPQVDGKQLLLGVGAPLAKALGREIPGLRPFPLLDAAVENPSTQHALWLWLRGDERGDLLLRTQALEQALAPALSLADSVDGFLHRGGHDLTGYEDGTENPTDEEAVQAAIAADGSSFAAFQLWKHDLQYFKSLPQADQDNIIGRRLSDNEELDDAPASAHVKRTAQESFEPEAFMVRRSVSWADQRGAGLAFVALGKSFEAFEVQLRRMSGLEDGIIDGLYRFSRPLTGGYYWCPPMSETGVDLSPLLRA
Tm (Pseudomonas putida (strain ATCC 47054 / DSM 6125 / CFBP 8728 / NCIMB 11950 / KT2440), pH 7.6, Fluorescence spectroscopy): 65 °C

B18: Persulfide dioxygenase ETHE1, mitochondrial wild type, O95571 (protein)
chain: MAEAVLRVARRQLSQRGGSGAPILLRQMFEPVSCTFTYLLGDRESREAVLIDPVLETAPRDAQLIKELGLRLLYAVNTHCHADHITGSGLLRSLLPGCQSVISRLSGAQADLHIEDGDSIRFGRFALETRASPGHTPGCVTFVLNDHSMAFTGDALLIRGCGRTDFQQGCAKTLYHSVHEKIFTLPGDCLIYPAHDYHGFTVSTVEEERTLNPRLTLSCEEFVKIMGNLNLPKPQQIDFAVPANMRCGVQTPTA
Tm (Homo sapiens, pH 7.5, Thermal, CD, Tris-HCl 50mM, NaCl 150mM, transition: 2): 62 °C

B19: Pseudoazurin wild type, P80401 (protein)
chain: MFHHSLAAAAAALLALAAPGFAATHEVHMLNKGESGAMVFEPAFVRAEPGDVINFVPTDKSHNVEAIKEILPEGVESFKSKINESYTLTVTEPGLYGVKCTPHFGMGMVGLVQVGDAPENLDAAKTAKMPKKARERMDAELAQVN
denaturant m value [10]: 1.87 kcal/mol/M
unfolding free energy [10]: 6.88 kcal/mol

B20: Cytochrome c-552 wild type, P15452 (protein)
chain: MKKFLLVAVVGLAGITFANEQLAKQKGCMACHDLKAKKVGPAYADVAKKYAGRKDAVDYLAGKIKKGGSGVWGSVPMPPQNVTDAEAKQLAQWILSIK
Tm [11]: 90 °C
unfolding enthalpy (van 't Hoff) [11]: 83.5 kcal/mol
